To fix the notation:
B1: HDV Ribozyme (parent)
chain: GGCCGGCAUGGUCCCAGCCUCCUCGCUGGCGCCGGCUGGGCAACAUUCCGAGGGGACCGUCCCCUCGGUAAUGGCGAAUGGGACCCA

In the series the parent is B1. Kind of series: self-cleavage, relative activity (ratio to wild type); higher = more cleavage; co-transcriptional.
For the variant GGCCGGCAUGGUCCCAGCCUCCUCGCUGGCGCCGGCUGGGCAACAUUCGGAGGGGACCGUCCCCUCGGUAAUGGAGAAUGGGACCCA [C49G C75A], the self-cleavage was 0.185.
Then GGCCGGCCUGGUCCCAGACUCCUCGCUGGCGCCGGCUGGGCAACAUUCCGAGGGGACCGUCCCCUCGGUAAUGGCGAAUGGGACCCA [A8C C18A], with 0.0415; and GGCCGGCAUGGUCCCAGCCUCCUCGCUGGCGCCGGCUGGGCAACAUUCCGAGGGGACCGUCCCCUUGGUAGUGGCGAAUGGGACCCA [C66U A71G], with 0.909.
Take GGCCGGCAUGGUCCCAGCCUCCUCGCUGGCGCCGGCUGGGCAACAUCCCGAGGGGACCGUCCCCUCAGUAAUGGCGAAUGGGACCCA [U47C G67A]: the self-cleavage stood at 0.923.
Then GGCCGGCAUGGUCCCAGCCUCCUCGCUGGCGCCGGCUGGGCAACAUUCCGAGGGGACCGUCCGCUCGGUAGUGGCGAAUGGGACCCA [C63G A71G], with 0.656.
As for GGCCGGCAUGGUCCCAGCCUCCUCACUAGCGCCGGCUGGGCAACAUUCCGAGGGGACCGUCCCCUCGGUAAUGGCGAAUGGGACCCA [G25A G28A], the self-cleavage is 0.0482.
Then GGCCGGCAUGGUCCCAGCCUCCUCGCUGGCGCCGGCUGGGCAACAUUCCGAGGGGAUCGUCCCCUCGGUAAUGGCGGAUGGGACCCA [C57U A77G], with 0.941; and GGCCGGCAUGGUCCCAGCCUCCUCUCUGGCGCCGGCUGGGCAACAUUCCGAGGGGACCGUCCCCUCGGUCAUGGCGAAUGGGACCCA [G25U A70C], with 0.237; and GGCCGGCAUGGUCCCAGCCUCCUCGCUGGCGCCGGCUGCGCAACGUUCCGAGGGGACCGUCCCCUCGGUAAUGGCGAAUGGGACCCA [G39C A45G], with 0.0923.
Next, GGCCUGCAUGGUCCCAGCCUCCUCGCUGGCGCCGGCUGGGCAACAUUCCGCGGGGACCGUCCCCUCGGUAAUGGCGAAUGGGACCCA [G5U A51C]: 0.277; GGCCGGCAGGGUCCCAGCCUCCUCGCUGGCGCCGGCGGGGCAACAUUCCGAGGGGACCGUCCCCUCGGUAAUGGCGAAUGGGACCCA [U9G U37G]: 0.111; GGCCGGCAUUGUCCCAGCCUCCUCGCUGGCGCCGGCUGGGCAACAUGCCGAGGGGACCGUCCCCUCGGUAAUGGCGAAUGGGACCCA [G10U U47G]: 0.63.
In the case of GGCCGGCAUGGUCCCAGCCUCCUCGCUGGCGCCGGCUGGGCAACAUUCCGAUGGCACCGUCCCCUCGGUAAUGGCGAAUGGGACCCA [G52U G55C], the self-cleavage stood at 0.961.
Then GGCCGGCAUGGUCCCAGCCUCCUCGCUGGCGCCGGCUGGGCAACAUUCCGAGGGGACCGUCACAUCGGUAAUGGCGAAUGGGACCCA [C62A C64A], with 0.332.
As to GGCCGGCAUGGUCCCAGCCUCCUCGCUGGCGCCGGCUGGGCAACAUUCCGAGAGGACCGUCCCCUCGGUAAAGGCGAAUGGGACCCA [G53A U72A], the self-cleavage was 0.642.
Then GGCCGGCAUGGUCCCAGCCUCCUCGCUGGCGCCGGCUGGGCAACAUUCUGAGGGGACCGUCCCCUUGGUAAUGGCGAAUGGGACCCA [C49U C66U], with 0.899; and GGCCGGCAUGGUCCCAGCCCCCUCGCUGGCGCGGGCUGGGCAACAUUCCGAGGGGACCGUCCCCUCGGUAAUGGCGAAUGGGACCCA [U20C C33G], with 0.
Next, GGCCGGCAUGGUCCCAGCCUCCCCGCUGGCACCGGCUGGGCAACAUUCCGAGGGGACCGUCCCCUCGGUAAUGGCGAAUGGGACCCA [U23C G31A]: 0.266.
Next, GGCCGGCAUGGUCCCAGCCUCCUCGGUGGCGCCGGCCGGGCAACAUUCCGAGGGGACCGUCCCCUCGGUAAUGGCGAAUGGGACCCA [C26G U37C]: 1.01.
Turning to GGCCGGCAUGGUCCCAGCCUCCUCGCUGGCGCCGGCUGGGCAACAUUCCGAGGGGACCGUCCCCUCGGUAGUGGCGAGUGGGACCCA [A71G A78G], the self-cleavage came out at 0.772.
Then GGCCGGCAUGGUCCCAGCCUCCUCGCUGGCGCCGGCUGGGCAACAUUCCGAGGGGAGCGUCCCCUCUGUAAUGGCGAAUGGGACCCA [C57G G67U], with 0.8; and GGCCGGCAUGGUCCCAGCCUCCUCGCUGGCGCCGGCUGGGCAACAUUCCGAGGGGACCGCCCCCUCGGAAAUGGCGAAUGGGACCCA [U60C U69A], with 0.802.
Regarding GGCCGGCAUGGUCCCAGCCUCCUCGCUAGCGCCGGCUGGGCAACAUUCCGAGGGGACCGUCCCCUCGGUAGUGGCGAAUGGGACCCA [G28A A71G], the self-cleavage turned out to be 0.0831.
Then GGCCGGCAUGGUCCCAGCCUCCUCGCUGGCGCCGGCUAGGCAACAUUCCGAGGGGACCGUCCCCUCGGUAUUGGCGAAUGGGACCCA [G38A A71U], with 0.102.
Next, GGCCGGCAUGGUCCCAGCCUCCUCGCUGGCGCCGGCUGGGCAACAUUCCGAGGGGACCGUCCCAUCGGGAAUGGCGAAUGGGACCCA [C64A U69G]: 1.15.
For the variant GGCCGGCAUGGUCCCAGCCUCCUCGCUGGCACCGGCUGGGCAACAUUCCGAGGGGACCGUCCCCUCGGUAAUGGCGAAAGGGACCCA [G31A U79A], the self-cleavage turned out to be 0.169.
Then GGCCGGCAUGGUCCCAUCCUCCUCGCUGGCGCCGGCUGGGCAACAUUCCGAGGGGACCGUCCCCUCGGUAAUGGCGAAUGAGACCCA [G17U G81A], with 0.415.
Next, GGCCUGCAUGGUCCCAGCCUCCUCGCUGGCGCCGGCUGGGCAACAUUACGAGGGGACCGUCCCCUCGGUAAUGGCGAAUGGGACCCA [G5U C48A]: 0.712.
Next, GGCCGGCAUGGUCCCAGCCUCCUCGCUGGCGCCGGCUGGGCAACAUUCCGAGGGGACCGUCCCCUCGGUAAUGGCGAAUGGGACCUU [C86U A87U]: 0.835; GGCCGGCAUGGCCCCAGCCUCCUCGCUGGCGCCGGCUGGGCAACAUUCCGAGGGCACCGUCCCCUCGGUAAUGGCGAAUGGGACCCA [U12C G55C]: 0.447.
GGCCGGCAUGGUCCCAGCCUCCUCGCGGGCGCCGGCUGGGCAACAUUCCGAGGGGACCGUCCCCUCGGGAAUGGCGAAUGGGACCCA [U27G U69G]: the self-cleavage was 0.798.
Next, GGCCGUCAUGGUCCCAGCCUCCGCGCUGGCGCCGGCUGGGCAACAUUCCGAGGGGACCGUCCCCUCGGUAAUGGCGAAUGGGACCCA [G6U U23G]: 0.178.
